T1: Dmp53 (Drosophila melanogaster, UniProt Q9N6D8 1-385)
T1 sequence: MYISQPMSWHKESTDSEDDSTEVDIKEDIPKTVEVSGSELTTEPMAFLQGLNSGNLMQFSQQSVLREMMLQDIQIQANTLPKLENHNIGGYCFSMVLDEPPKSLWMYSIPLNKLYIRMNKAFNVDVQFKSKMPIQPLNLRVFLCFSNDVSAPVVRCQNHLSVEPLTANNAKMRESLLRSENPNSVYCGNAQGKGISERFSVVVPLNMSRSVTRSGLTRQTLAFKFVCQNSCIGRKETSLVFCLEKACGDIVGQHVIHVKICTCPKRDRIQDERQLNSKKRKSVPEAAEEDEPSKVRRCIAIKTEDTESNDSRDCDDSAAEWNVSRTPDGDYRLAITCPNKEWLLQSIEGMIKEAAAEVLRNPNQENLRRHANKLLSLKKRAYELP

T2: ΔNp63β (Homo sapiens, UniProt Q9H3D4-4 1-461)
T2 sequence: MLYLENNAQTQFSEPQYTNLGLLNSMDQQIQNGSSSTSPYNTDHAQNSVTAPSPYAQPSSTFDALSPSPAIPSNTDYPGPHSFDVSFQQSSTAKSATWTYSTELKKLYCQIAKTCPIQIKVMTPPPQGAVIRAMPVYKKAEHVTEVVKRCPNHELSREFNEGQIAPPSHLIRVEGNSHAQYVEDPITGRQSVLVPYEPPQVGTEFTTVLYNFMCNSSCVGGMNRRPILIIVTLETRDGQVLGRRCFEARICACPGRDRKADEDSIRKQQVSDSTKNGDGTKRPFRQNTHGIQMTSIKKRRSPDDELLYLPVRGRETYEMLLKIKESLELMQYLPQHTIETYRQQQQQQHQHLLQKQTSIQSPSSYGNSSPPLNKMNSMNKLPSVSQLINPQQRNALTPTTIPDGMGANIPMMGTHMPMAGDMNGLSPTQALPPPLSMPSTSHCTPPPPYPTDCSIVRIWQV

T3: Drp53 (Danio rerio, UniProt P79734 1-373)
T3 sequence: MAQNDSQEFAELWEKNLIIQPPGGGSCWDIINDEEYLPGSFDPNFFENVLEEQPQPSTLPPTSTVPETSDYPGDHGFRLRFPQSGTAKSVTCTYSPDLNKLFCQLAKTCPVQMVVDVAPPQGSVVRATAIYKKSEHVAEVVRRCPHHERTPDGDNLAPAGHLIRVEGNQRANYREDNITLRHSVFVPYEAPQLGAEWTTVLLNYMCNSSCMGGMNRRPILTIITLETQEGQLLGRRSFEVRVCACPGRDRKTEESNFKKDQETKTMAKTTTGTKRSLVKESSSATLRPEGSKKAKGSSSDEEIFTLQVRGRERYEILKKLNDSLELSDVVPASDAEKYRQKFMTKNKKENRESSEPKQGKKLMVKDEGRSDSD

T4: ΔNp63α (Homo sapiens, UniProt Q9H3D4-2 1-586)
T4 sequence: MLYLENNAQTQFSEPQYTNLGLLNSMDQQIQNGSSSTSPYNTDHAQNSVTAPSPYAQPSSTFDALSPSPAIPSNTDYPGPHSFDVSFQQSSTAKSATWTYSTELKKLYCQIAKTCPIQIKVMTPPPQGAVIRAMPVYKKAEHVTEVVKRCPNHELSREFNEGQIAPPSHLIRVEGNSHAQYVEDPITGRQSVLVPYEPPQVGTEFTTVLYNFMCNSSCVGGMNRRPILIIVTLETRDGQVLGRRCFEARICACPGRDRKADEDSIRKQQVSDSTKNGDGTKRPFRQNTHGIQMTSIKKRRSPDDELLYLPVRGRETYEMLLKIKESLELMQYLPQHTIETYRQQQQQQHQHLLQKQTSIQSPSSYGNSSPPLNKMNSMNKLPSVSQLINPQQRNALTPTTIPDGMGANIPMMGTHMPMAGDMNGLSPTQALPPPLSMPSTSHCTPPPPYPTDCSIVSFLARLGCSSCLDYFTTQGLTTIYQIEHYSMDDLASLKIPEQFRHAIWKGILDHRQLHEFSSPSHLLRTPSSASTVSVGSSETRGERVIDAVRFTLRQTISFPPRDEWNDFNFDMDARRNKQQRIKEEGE


How the values were obtained:
[1] = target: T1, Dmp53; assay: fluorescence anisotropy competition titration; 25 mM sodium phosphate (purification buffer pH 7.2), 225 mM NaCl, 10% v/v glycerol, 5 mM DTT, 0.2 mg/mL BSA, 22 C; details: protein: recombinant; tags: N-terminal 6xHis-lipoyl-TEV tag, cleaved; chain copies: 4
[2] = target: T2, ΔNp63β; assay: as above; details: protein: recombinant; tags: N-terminal 6xHis-lipoyl-TEV tag, cleaved; chain copies: 4
[3] = target: T3, Drp53; assay: as above; details: protein: recombinant; tags: N-terminal 6xHis-lipoyl-TEV tag, cleaved; chain copies: 4
[4] = target: T4, ΔNp63α; assay: as above; details: protein: recombinant; tags: N-terminal 6xHis-lipoyl-TEV tag, cleaved; chain copies: 4
[5] = target: T5, Xlp53 (Xenopus laevis, UniProt Q7T1D0 1-362); assay: anisotropy competition; 25 mM NaPi, 225 mM NaCl, 10% v/v glycerol, 5 mM DTT, 0.2 mg/mL BSA, 22°C; 20 nM labelled DNA; pH not stated for the binding assay; details: protein: recombinant; tags: N-terminal 6xHis-lipoyl-TEV tag, cleaved; chain copies: 4
[6] = target: T5, Xlp53; assay: fluorescence anisotropy direct titration; 25 mM sodium phosphate (purification buffer pH 7.2), 225 mM NaCl, 10% v/v glycerol, 5 mM DTT, 0.2 mg/mL BSA, 22 C; details: protein: recombinant; tags: N-terminal 6xHis-lipoyl-TEV tag, cleaved; chain copies: 4; label: 5'-Alexa488
[7] = target: T2, ΔNp63β; assay: as above; details: protein: recombinant; tags: N-terminal 6xHis-lipoyl-TEV tag, cleaved; chain copies: 4; label: 5'-Alexa488
[8] = target: T3, Drp53; assay: as above; details: protein: recombinant; tags: N-terminal 6xHis-lipoyl-TEV tag, cleaved; chain copies: 4; label: 5'-Alexa488

T5 sequence (Q7T1D0 entry or part of it): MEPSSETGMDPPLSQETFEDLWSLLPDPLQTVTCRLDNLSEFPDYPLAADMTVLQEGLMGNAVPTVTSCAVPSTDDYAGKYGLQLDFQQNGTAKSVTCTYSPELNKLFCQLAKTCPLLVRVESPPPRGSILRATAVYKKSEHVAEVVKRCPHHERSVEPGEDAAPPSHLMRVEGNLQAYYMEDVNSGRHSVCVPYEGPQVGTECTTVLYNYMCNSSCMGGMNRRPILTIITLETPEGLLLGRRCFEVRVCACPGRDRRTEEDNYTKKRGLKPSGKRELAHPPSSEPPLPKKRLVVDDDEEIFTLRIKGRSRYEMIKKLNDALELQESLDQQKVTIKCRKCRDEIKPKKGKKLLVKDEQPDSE

Binder	Kd [1] [nM]	Kd [2] [nM]	Kd [3] [nM]	Kd [4] [nM]	Kd [5]	Kd [6] [nM]	Kd [7] [nM]	Kd [8] [nM]
Ref competitor (dsDNA) DNA 1: CGCGGACATGTCCGGACATGTCCCGC DNA 2: GCGGGACATGTCCGGACATGTCCGCG	27.5	35.5	38	61.7	-7.08 log10(M)	–	–	–
Ref_Alexa488 (dsDNA) DNA 1: GGACATGTCCGGACATGTCC DNA 2: GGACATGTCCGGACATGTCC	–	–	–	–	–	47.9	74.1	63.1

— paper PMC2807882, “Conservation of DNA-binding specificity and oligomerisation properties within the p53 family”
